± gives the uncertainty stated by the source.

The data set can be described thus: self-splicing fitness, log relative to wild type (ln ratio); higher = more splicing; Tetrahymena group I intron in knt gene, E. coli kanamycin selection, DiMSum; sequences stand for … in CUCUCU…GGAGGGAAAAGUUAUCAGGCAUGCACCUGGUAGCUAGUCUUUAAACCAAUAGAUUGCAUCGGUUUAAAAGGCAAGACCGUCAAAUUGCGGGAAAGGGGUCAACAGCCGUUCAGUACCAAGUCUCAGGGGAAACUUUGAGAUGGCCUUGCAAAGGGUAUGGUAAUAAGCUGACGGACAUGGUCCUAACCACGCAGCCAAGUCCUAAGUCAACAGAUCUUCUGUUGAUAUGGAUGCAGUUCACAGACUAAAUGUCGGUCGGGGAAGAUGUAUUCUUCUCAUAAGAUAUAGUCGGACCUCUCCUUAAUGGGAGCUAGCGGAUGAAGUGAUGCAACACUGGAGCCGCUGGGAACUAAUUUGUAUGCGAAAGUAUAUUGAUUAGUUUUGGAGUACUCGUGGUCG
In short, it runs like this: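 Six replicate transformations of E. coli BL21(DE3) with a pET-22b(+) library were grown overnight at 37°C or 30°C. The library randomised all eight P1ex-region intron nucleotides, the intron lying in the knt kanamycin-resistance gene, and plates were LB agar with or without 25 μg/mL kanamycin plus 100 μg/mL carbenicillin, 50 μM IPTG and 0.2% rhamnose. Pooled colonies were amplicon-sequenced on an Illumina HiSeq 2500, and fitness is the DiMSum error-weighted combination of wild-type-normalised replicate fold changes, kanamycin versus none.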

With UUAUAGCAAUAUUACGAGCA, the “self-splicing fitness (ln)” value reads like this: (30 °C) -2.02 ± 0.17; (37 °C) -1.49 ± 0.17.
On to CGUUAGCAAUAUUACGUGCG, for which the “self-splicing fitness (ln)” value reads like this: (30 °C) -3.7 ± 0.14; (37 °C) -2.71 ± 0.15.
Regarding AGGAAGCAAUAUUACGAUUG, the “self-splicing fitness (ln)” value is, setting by setting: (30 °C) -3.96 ± 0.36; (37 °C) -3.3 ± 0.28.
Turning to CUGAAGCAAUAUUACGGAAA, the “self-splicing fitness (ln)” value (30 °C) is -3.46 ± 0.26 and the “self-splicing fitness (ln)” value (37 °C) was -1.43 ± 0.31.
Turning to CCAUAGCAAUAUUACGAGCU, the “self-splicing fitness (ln)” value by setting is: (30 °C) -3.04 ± 0.36; (37 °C) -2.9 ± 0.47.
The like results for UCCCAGCAAUAUUACGGUCU were, in that order, -1.83 ± 0.11 and -0.794 ± 0.11.
The like results for CAGUAGCAAUAUUACGAUGC were, in that order, -3.51 ± 0.28 and -2.67 ± 0.3.
The like results for UGGGAGCAAUAUUACGACUA were, in that order, -1.68 ± 0.35 and 0.369 ± 0.3.
For the sequence GACAAGCAAUAUUACGCUGA, the “self-splicing fitness (ln)” value (30 °C) is -2.53 ± 0.13 and the “self-splicing fitness (ln)” value (37 °C) was -1.55 ± 0.11.
For CUGGAGCAAUAUUACGGUAA, in that order: -2.61 ± 0.28 and -2.89 ± 0.25.
On to GCCCAGCAAUAUUACGCUAA, for which the “self-splicing fitness (ln)” value reads like this: (30 °C) -0.87 ± 0.083; (37 °C) -0.549 ± 0.09.
Turning to CAGCAGCAAUAUUACGAAAA, the “self-splicing fitness (ln)” value (30 °C) was -2.36 ± 0.2 and the “self-splicing fitness (ln)” value (37 °C) is -2.26 ± 0.28.
For the sequence AUUCAGCAAUAUUACGCUAA, the “self-splicing fitness (ln)” value was -0.96 ± 0.094 (30 °C) and -0.0329 ± 0.1 (37 °C).
The like results for UUCAAGCAAUAUUACGGGUA were, in that order, -0.67 ± 0.085 and -0.182 ± 0.08.
The like results for GCGUAGCAAUAUUACGGGAC were, in that order, -2.1 ± 0.15 and -2.17 ± 0.2.
For CAGUAGCAAUAUUACGCUUU, in that order: -4.27 ± 0.24 and -1.93 ± 0.17.
As for CACGAGCAAUAUUACGCGUG, the “self-splicing fitness (ln)” value runs as follows: (30 °C) -2.79 ± 0.19; (37 °C) -2.97 ± 0.38.
Take GACUAGCAAUAUUACGCAGA: the “self-splicing fitness (ln)” value runs as follows: (30 °C) -2.34 ± 0.16; (37 °C) -1.62 ± 0.17.
The like results for GGCAAGCAAUAUUACGAAGA were, in that order, -2.24 ± 0.18 and -0.478 ± 0.12.
Turning to GUCAAGCAAUAUUACGCGAG, the “self-splicing fitness (ln)” value is -1.83 ± 0.11 (30 °C) and -1.36 ± 0.12 (37 °C).
As to UCUGAGCAAUAUUACGGACU, the “self-splicing fitness (ln)” value is -2.57 ± 0.39 (30 °C) and -1.21 ± 0.41 (37 °C).
For AACGAGCAAUAUUACGCAUG, in that order: -4.23 ± 0.31 and -2.76 ± 0.29.
On to GUACAGCAAUAUUACGCAGA, for which the “self-splicing fitness (ln)” value (37 °C) is -2.72 ± 0.2.
As for AGUGAGCAAUAUUACGUAUA, the “self-splicing fitness (ln)” value runs as follows: (30 °C) -2.18 ± 0.25; (37 °C) -2.72 ± 0.27.
For UUACAGCAAUAUUACGGACA, in that order: -1.02 ± 0.11 and -0.885 ± 0.13.
Consider CUCCAGCAAUAUUACGCAGA, for which the “self-splicing fitness (ln)” value was -3.72 ± 0.35 (30 °C) and -1.94 ± 0.2 (37 °C).
The like results for AGCCAGCAAUAUUACGACAC were, in that order, -2.83 ± 0.28 and -1.55 ± 0.27.
On to CCGGAGCAAUAUUACGACGU, for which the “self-splicing fitness (ln)” value is -0.341 ± 0.08 (30 °C) and -0.163 ± 0.096 (37 °C).
Turning to GCUGAGCAAUAUUACGCGGA, the “self-splicing fitness (ln)” value reads like this: (30 °C) -4.07 ± 0.35; (37 °C) -2.82 ± 0.23.
Turning to UCUUAGCAAUAUUACGGGAA, the “self-splicing fitness (ln)” value (37 °C) is -0.457 ± 0.3.
AGAAAGCAAUAUUACGUUGU: the “self-splicing fitness (ln)” value (30 °C) is -4.11 ± 0.14 and the “self-splicing fitness (ln)” value (37 °C) was -1.88 ± 0.099.
The like results for CGGUAGCAAUAUUACGUAGC were, in that order, -3.25 ± 0.2 and -3.13 ± 0.27.
For GGACAGCAAUAUUACGAUUG, in that order: -1.09 ± 0.12 and -1.15 ± 0.19.
With UGUUAGCAAUAUUACGGUUC, the “self-splicing fitness (ln)” value runs as follows: (30 °C) -1.02 ± 0.24; (37 °C) -1.25 ± 0.48.
The like results for CUGCAGCAAUAUUACGAGGA were, in that order, -3.68 ± 0.22 and -2.39 ± 0.18.
Consider GAGGAGCAAUAUUACGUUCA, for which the “self-splicing fitness (ln)” value (30 °C) is -1.18 ± 0.081 and the “self-splicing fitness (ln)” value (37 °C) is -0.275 ± 0.11.
For UCUGAGCAAUAUUACGGAGA, in that order: -2.35 ± 0.17 and -0.963 ± 0.14.
The like results for AAGUAGCAAUAUUACGUUAC were, in that order, -3.59 ± 0.3 and -2.71 ± 0.29.
For CCAUAGCAAUAUUACGCCAG, in that order: -1.94 ± 0.14 and -0.423 ± 0.14.
Consider CGAGAGCAAUAUUACGAUAG, for which the “self-splicing fitness (ln)” value (30 °C) was -2.68 ± 0.18 and the “self-splicing fitness (ln)” value (37 °C) was -2.11 ± 0.18.
For GACUAGCAAUAUUACGCGAA, in that order: -1.83 ± 0.18 and -0.638 ± 0.17.
For ACUCAGCAAUAUUACGGGCA, the “self-splicing fitness (ln)” value is, setting by setting: (30 °C) -0.259 ± 0.063; (37 °C) 0.203 ± 0.084.
In the case of AAACAGCAAUAUUACGAGUC, the “self-splicing fitness (ln)” value reads like this: (30 °C) -3.55 ± 0.14; (37 °C) -2.38 ± 0.14.
Take GGAGAGCAAUAUUACGUCAA: the “self-splicing fitness (ln)” value reads like this: (30 °C) -2.93 ± 0.31; (37 °C) -3.54 ± 0.46.
As for AGAUAGCAAUAUUACGCCCA, the “self-splicing fitness (ln)” value runs as follows: (30 °C) -1.03 ± 0.21; (37 °C) -0.502 ± 0.23.
The like results for GAAGAGCAAUAUUACGAUGU were, in that order, -2.54 ± 0.2 and -1.39 ± 0.15.
Consider GUGAAGCAAUAUUACGUCAG, for which the “self-splicing fitness (ln)” value is -0.462 ± 0.076 (30 °C) and -0.996 ± 0.08 (37 °C).
The like results for CACAAGCAAUAUUACGCGGC were, in that order, -3.25 ± 0.19 and -2.98 ± 0.23.
The like results for GCCCAGCAAUAUUACGACAA were, in that order, -2.72 ± 0.14 and -1.27 ± 0.11.
With CAAAAGCAAUAUUACGCUCG, the “self-splicing fitness (ln)” value is, setting by setting: (30 °C) -1.25 ± 0.12; (37 °C) -0.455 ± 0.12.
As to UGCAAGCAAUAUUACGUCUA, the “self-splicing fitness (ln)” value runs as follows: (30 °C) -0.304 ± 0.047; (37 °C) 0.371 ± 0.062.
In the case of UAGGAGCAAUAUUACGCAGU, the “self-splicing fitness (ln)” value (37 °C) was -1.96 ± 0.28.
On to CAAAAGCAAUAUUACGCGCA, for which the “self-splicing fitness (ln)” value is, setting by setting: (30 °C) -1.05 ± 0.1; (37 °C) -0.548 ± 0.1.
In the case of CGAUAGCAAUAUUACGUUAC, the “self-splicing fitness (ln)” value is -3.47 ± 0.28 (30 °C) and -2.17 ± 0.2 (37 °C).
The like results for CCCAAGCAAUAUUACGAGAU were, in that order, -2.91 ± 0.14 and -3.31 ± 0.21.
In the case of GGGAAGCAAUAUUACGCGGU, the “self-splicing fitness (ln)” value runs as follows: (30 °C) -3.44 ± 0.31; (37 °C) -1.4 ± 0.21.
For ACAAAGCAAUAUUACGCGGA, in that order: -1.7 ± 0.078 and -0.866 ± 0.072.
For CAUAAGCAAUAUUACGAUCG, in that order: -0.428 ± 0.1 and -0.532 ± 0.11.
AUCGAGCAAUAUUACGUAAA: the “self-splicing fitness (ln)” value was -3.43 ± 0.3 (30 °C) and -1.53 ± 0.29 (37 °C).
For GACAAGCAAUAUUACGCUUA, in that order: -1.52 ± 0.098 and -0.863 ± 0.1.
For GGUAAGCAAUAUUACGCUAA, in that order: -2.29 ± 0.18 and 0.0407 ± 0.15.
On to AACGAGCAAUAUUACGACAU, for which the “self-splicing fitness (ln)” value (30 °C) is -2.2 ± 0.015 and the “self-splicing fitness (ln)” value (37 °C) is -1.33 ± 0.033.
The like results for ACGAAGCAAUAUUACGUGUC were, in that order, -3.76 ± 0.15 and -2.7 ± 0.17.
With UCCUAGCAAUAUUACGAUCU, the “self-splicing fitness (ln)” value (37 °C) is -1.69 ± 0.37.
As for GUGAAGCAAUAUUACGGAGC, the “self-splicing fitness (ln)” value is, setting by setting: (30 °C) -4.68 ± 0.46; (37 °C) -1.38 ± 0.16.
For UCACAGCAAUAUUACGAAAA, in that order: -3 ± 0.31 and -1.27 ± 0.17.
For the sequence ACCGAGCAAUAUUACGGACC, the “self-splicing fitness (ln)” value was -1.29 ± 0.082 (30 °C) and -0.293 ± 0.092 (37 °C).
Turning to AGCGAGCAAUAUUACGUGAG, the “self-splicing fitness (ln)” value is -4.49 ± 0.27 (30 °C) and -2.79 ± 0.19 (37 °C).
The like results for CGUCAGCAAUAUUACGCUGU were, in that order, -4.26 ± 0.33 and -1.51 ± 0.27.
The like results for CAAUAGCAAUAUUACGUGUC were, in that order, -3.97 ± 0.18 and -3.28 ± 0.21.
Turning to UGACAGCAAUAUUACGUGCG, the “self-splicing fitness (ln)” value was -1.12 ± 0.086 (30 °C) and -0.119 ± 0.097 (37 °C).
For ACUAAGCAAUAUUACGAUUG, in that order: -2.62 ± 0.13 and -1.5 ± 0.14.
The like results for GCAAAGCAAUAUUACGGACG were, in that order, -1.4 ± 0.091 and 0.261 ± 0.14.
For GGGUAGCAAUAUUACGGAAU, the “self-splicing fitness (ln)” value is -0.368 ± 0.12 (30 °C) and -0.661 ± 0.19 (37 °C).
The like results for UAGCAGCAAUAUUACGGUAU were, in that order, -2.97 ± 0.092 and -2.41 ± 0.094.
In the case of AACGAGCAAUAUUACGAGGU, the “self-splicing fitness (ln)” value runs as follows: (30 °C) -3.56 ± 0.18; (37 °C) -1.96 ± 0.16.

These data come from the supplement of paper PMC7877785.
